Laboratory results published in patent US20110086089A1, “USE OF P27KIP1 FOR THE PREVENTION AND TREATMENT OF HEART FAILURE” (UNIVERSITY HEALTH NETWORK, priority 2008, published 2011).
Marks after values point to notes of the source that are not given here.

B1: p27ΔC: TAT-conjugated p27 deficient in binding to CK2-alpha-prime (p27.1-86), serving as negative control (protein)
chain: MSNVRVSNGSPSLERMDARQADHPKPSACRNLFGPVDHEELTRDLEKHCRDMEEASQRKWNFDFQNHKPLEGKYEWQEVEKGSLPE
modifications: left off: small tags and cut ends
B2: CK2-α′: recombinant active TAT-conjugated CK2-alpha-prime protein with NES of HIV-1 Rev (protein)
chain: MPGPAAGSRARVYAEVNSLRSREYWDYEAHVPSWGNQDDYQLVRKLGRGKYSEVFEAINITNNERVVVKILKPVKKKKIKREVKILENLRGGTNIIKLIDTVKDPVSKTPALVFEYINNTDFKQLYQILTDFDIRFYMYELLKALDYCHSKGIMHRDVKPHNVMIDHQQKKLRLIDWGLAEFYHPAQEYNVRVASRYFKGPELLVDYQMYDYSLDMWSLGCMLASMIFRREPFFHGQDNYDQLVRIAKVLGTEELYGYLKKYHIDLDPHFNDILGQHSRKRWENFIHSENRHLVSPEALDLLDKLLRYDHQQRLTAKEAMEHPYFYPVVKEQSQPCADNAVLSSGLTAAR
modifications: left off: small tags and cut ends

Tests used:
[1] = tested on: WT mice; assay: Chronic Ang II infusion for 14 days with daily TAT.protein injection, WT mice; type: in vivo; details: for FS / LVEDD / LVEF / LVESD / PWD: WT, echocardiography at 14 days
Excerpt: FIG. 5 is a series of graphs, blots and cell stainings showing CK2-alpha-prime is important for Ang II action in vivo. […] Transduction of recombinant active CK2-alpha-prime evokes cardiac hypertrophy in the absence of Ang II. (A) Heart-weight corrected for body-weight (left panel) and Masson-stain of myocardial cross sections (right panel). Mean±s.e.m., n=6-8. #P<0.01 vs sham saline. *P<0.01 vs sham saline. Scale bar, 2 mm. (B) Cell size analysis of adult cardiac myocytes isolated from 8-weeks-old mice. One hundred cells from three different mice were analyzed per group. Mean±s.e.m. #P<0.01 vs sham saline. *P<0.01 vs sham saline. **P<0.01 vs Ang II. (c) Determination of ANF/BNP mRNA levels by qRT-PCR. Mean±s.e.m., n=6-8. *P<0.05 vs sham saline. **P<0.05 vs Ang II. #P<0.05 vs sham saline. (D) Visualization of ectopic TAT-conjugated p27deltaPi by indirect immunofluorescence microscopy employing anti-His tag antibodies. Scale bar, 200 μm. (E) Left ventricular extracts (2-3 mg) were subjected to anti-CK2-alpha-prime immunocomplex kinase assays employing histone H1 substrate. Aliquots of kinase reactions were subjected to immunoblotting using antibodies as indicated on the left (top and middle panel). Levels of endogenously expressed or transduced proteins in total left ventricular heart tissue samples (60 μg) were analyzed by immunoblotting (bottom panel). Experiments to (E) were done twice with similar results.
To define whether CK2-alpha-prime -directed p27 turnover plays a role in vivo, the inventors chronically infused Ang II^72 and intraperitoneally injected recombinant TAT-conjugated CK2-alpha-prime and p27 variants in WT and p27^−/− mice (FIG. 9). […] These mice had normal LVEDD and LVESD when compared to Ang II-infused littermates (Table 3). […] CK2-alpha-prime activity and p27 destabilization were similar to their non-transduced Ang II-treated siblings (FIG. 5E).
(§1) Spontaneously beating cardiomyocytes from heart ventricles of neonatal rats were cultured and subjected to treatment with angiotensin II (Ang II). DMAT (2-dimethylamino-4,5,6,7-tetrabromo-1H-benzimidazol), DMSO, lactacystin and LLM were obtained from Calbiochem. Ang II was purchased from Sigma. Animal usage was in accordance with approved institutional animal care guidelines. Age-matched male WI C57BL/6 and p27^−/− mice were used in this study. For results shown in FIGS. 1 to 9: Ang II was chronically infused subcutaneously by osmotic pumps (model 2000, Alzet) at a dose of 1.4 μg/kg per minute for 14 days. TAT.proteins (10 mg/kg) were injected intraperitoneally once daily for 14 days. For results shown in FIGS. 10 to 12: Ang II was chronically infused subcutaneously by osmotic pumps (model 2000, Alzet) at a dose of 0.7 μg/kg per minute for 16 days. TAT.proteins (20 mg/kg) were injected intraperitoneally once daily for 8 days starting at day 8. Thoracic aortic banding (TAB) and pressure gradient measurements were performed as described^39.

[2] = tested on: p27 KO mice; assay: Chronic Ang II infusion for 14 days with daily TAT.protein injection, p27 KO mice; type: in vivo; details: p27 KO, echocardiography at 14 days
Description: (A) Heart-weight corrected for body-weight (left panel) and Masson-stain of myocardial cross sections (right panel). Mean±s.e.m., n=6-8. *P<0.01 vs sham saline. **P<0.01 vs Ang II. Scale bar, 2 mm. (B) Cell size analysis of adult cardiac myocytes isolated from 8-weeks-old mice. One hundred cells from three different mice were analyzed per group. Mean±s.e.m. *P<0.01 vs sham saline. **P<0.01 vs Ang II. (C) Determination of ANF/BNP mRNA levels by qRT-PCR. Mean±s.e.m., n=6-8. *P<0.01 vs sham saline. **P<0.01 vs Ang II. (D) CK2-alpha-prime-dependent kinase activity determined in whole left ventricular tissue samples. One typical result of two independent experiments is shown. (E, F) Ang II action induces apoptosis in p27^−/− mice. (E) Quantification of apoptotic cardiac myocytes (white arrowheads) by in situ TUNEL and GATA4 immunofluorescence histochemistry of left ventricular specimen. Mean±s.e.m., n=4. *P<0.01 vs sham saline. **P<0.05 vs sham saline. #P<0.01. (F) Determination of caspase 3 activity in total left ventricular heart tissue samples. Mean±s.e.m., n=4. *P<0.05 vs sham saline. #P<0.01. (G) Model for CK2-alpha-prime-dependent regulation of cardiac hypertrophy through phosphorylation of p27. Hypertrophic signals stimulate CK2-alpha-prime kinase that phosphorylates p27 at S83 and T187. Phosphorylation of p27 impairs its ability to bind to and inhibit […] activity. Subsequently, p27 is proteasomally degraded allowing hypertrophic growth to proceed.
Next, the inventors examined the effect of transduced proteins on cardiac hypertrophy in p27^−/− mice. Elimination of p27 gene function in these animals completely abrogated the ability of kd.CK2-alpha-prime to block cardiac hypertrophy (FIG. 6A-D). In contrast, hypertrophic responses to Ang II were abolished by p27deltaPi injections. Thus, reconstitution of p27 protein abundance in the myocardium of p27^−/− mice was accompanied by inhibition of Ang II action. Moreover, the inventors observed a marked increase in the number of TUNEL-positive cardiomyocyte nuclei in Ang II-infused p27^−/− mice (FIG. 6E,F) as compared to the WT controls. […] This was in direct contrast to the effect seen by ectopic kd.CK2-alpha-prime consistent with the inventors' previous work showing that CK2 is cardioprotective^73,74.
as §1

[3] = tested on: p27 phosphorylation at S83 and T187 in cardiomyocytes; assay: p27 phosphorylation at S83 and T187 in Ang II-treated cardiomyocytes (Western blot); type: cell-based, rat; details: Ang II 4 h; lentiviruses 72 h; DMAT 20 μM pre-incubated 30 min; TAT-conjugated CK2-alpha-prime 2.5 μg/ml 1 h
Description: FIG. 2 is a series of graphs and blots showing Ang II triggers CK2-alpha-prime-dependent phosphorylation of p27 on S83 and T187 in cardiomyocytes. (A) p27 is a substrate of CK2-alpha-prime. […] In vitro kinase assays employing recombinant wt.p27 (1 μg) or phosphorylation site mutants of p27 as substrates were incubated with recombinant CK2-alpha-prime/beta (200 ng). Aliquots of the reaction mixtures were resolved on SDS-PAGE, electrotransferred to nitrocellulose membranes, and the amount of incorporated radioactive [^32P}-label into p27 was quantified with a PhosphorImager and ImageJ software. Individual membranes were probed with anti-CK2-alpha-prime, anti-p27 (input), or phosphorylation site specific antibodies to p27. […] Samples were resolved on SDS-PAGE, transferred to nitrocellulose-membranes, and the amount of incorporated radioactive label into histones was quantified with a PhosphorImager and ImageJ. The input amount of each CK2-alpha-prime and p27 protein used in the kinase reaction mixtures was monitored by immunoblot analysis employing anti-His. […] Biochemically fractionated extracts corresponding to 4×10^5 cells per lane were analyzed by immunoblotting employing antibodies as indicated on the left. […]

[4] = Ang infusion 1.4 μg/kg per minute 14 days, TAT.protein 10 mg/kg i.p. once daily
[5] = saline infusion, TAT.protein 10 mg/kg i.p. once daily 14 days
[6] = saline infusion, TAT.protein 10 mg/kg i.p. once daily 14 days, 8-weeks of age

Molecule | FS [1, 4] | LVEDD [1, 4] | LVEF [1, 4] | LVESD [1, 4] | PWD [1, 4] | LVEDD [1, 5] | LVEF [1, 5] | LVESD [1, 5] | PWD [1, 5] | FS [1, 6] | also measured
B1 | 54 ± 3.2% | 4.5 ± 0.2 mm | 81 ± 3.5% | 2.3 ± 0.1 mm | 1.2 ± 0.2 mm | 3.6 ± 0.2 mm | 69 ± 2.1% | 1.4 ± 0.1 mm | 0.7 ± 0.1 mm | 41 ± 1.8% | cardiac hypertrophy to Ang II (heart/body weight ratio, myocyte area, ANF/BNP mRNA) ([1]; Ang II-treated WT mice, TAT.proteins 10 mg/kg i.p. once daily 14 days): No anti-hypertrophic effect; FS [2, 4]: 56 ± 3.9%; LVEDD [2, 4]: 4.6 ± 0.2 mm; LVEF [2, 4]: 82 ± 3.8%; LVESD [2, 4]: 2.3 ± 0.2 mm; PWD [2, 4]: 1.1 ± 0.1 mm; FS [2, 5]: 42 ± 2.4%; LVEDD [2, 5]: 3.7 ± 0.2 mm; LVEF [2, 5]: 73 ± 2.6%; LVESD [2, 5]: 1.3 ± 0.1 mm; PWD [2, 5]: 0.6 ± 0.2 mm
B2 | 55 ± 3.9* % | 4.6 ± 0.1* mm | 82 ± 2.8* % | 2.4 ± 0.1* mm | 1.3 ± 0.1* mm | 4.5 ± 0.2^# mm | 83 ± 3.1^# % | 2.4 ± 0.2^# mm | 1.3 ± 0.2^# mm | 52 ± 2.0^# % | S83/T187 phosphorylation of p27 in cardiomyocytes [3]: rescued the detrimental impact of siCK2-alpha-prime on p27 phosphorylation; cardiac hypertrophy in the absence of Ang II ([1]; WT mice, saline, TAT.protein 10 mg/kg i.p. once daily): did induce cardiac hypertrophy
